# Measured values taken from US20220332804A1 (CSL INNOVATION, published 2022).
# T1: human C2 K443A (human, UniProt P06681 21-752)
# T1 sequence: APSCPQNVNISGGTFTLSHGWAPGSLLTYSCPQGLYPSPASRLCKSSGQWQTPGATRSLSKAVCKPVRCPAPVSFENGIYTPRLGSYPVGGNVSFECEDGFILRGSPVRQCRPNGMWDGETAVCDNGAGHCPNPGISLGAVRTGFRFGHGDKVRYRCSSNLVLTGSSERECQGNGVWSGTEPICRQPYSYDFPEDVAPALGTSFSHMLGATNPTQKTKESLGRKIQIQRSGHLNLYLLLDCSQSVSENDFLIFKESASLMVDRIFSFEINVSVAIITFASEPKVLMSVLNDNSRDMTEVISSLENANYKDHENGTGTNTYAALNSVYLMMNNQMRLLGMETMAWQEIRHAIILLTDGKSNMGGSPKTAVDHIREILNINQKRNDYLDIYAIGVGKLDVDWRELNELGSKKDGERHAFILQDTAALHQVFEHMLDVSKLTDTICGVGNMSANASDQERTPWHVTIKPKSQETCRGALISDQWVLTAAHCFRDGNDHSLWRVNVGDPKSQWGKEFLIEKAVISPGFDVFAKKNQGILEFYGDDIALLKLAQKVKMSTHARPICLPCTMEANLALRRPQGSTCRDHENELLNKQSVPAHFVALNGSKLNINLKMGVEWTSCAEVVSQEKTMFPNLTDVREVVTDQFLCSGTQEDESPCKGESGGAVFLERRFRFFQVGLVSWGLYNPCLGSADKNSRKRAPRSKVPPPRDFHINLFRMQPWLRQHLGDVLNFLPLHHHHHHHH
# T2: human C2 S473A (human, UniProt P06681 21-752)
# T2 sequence: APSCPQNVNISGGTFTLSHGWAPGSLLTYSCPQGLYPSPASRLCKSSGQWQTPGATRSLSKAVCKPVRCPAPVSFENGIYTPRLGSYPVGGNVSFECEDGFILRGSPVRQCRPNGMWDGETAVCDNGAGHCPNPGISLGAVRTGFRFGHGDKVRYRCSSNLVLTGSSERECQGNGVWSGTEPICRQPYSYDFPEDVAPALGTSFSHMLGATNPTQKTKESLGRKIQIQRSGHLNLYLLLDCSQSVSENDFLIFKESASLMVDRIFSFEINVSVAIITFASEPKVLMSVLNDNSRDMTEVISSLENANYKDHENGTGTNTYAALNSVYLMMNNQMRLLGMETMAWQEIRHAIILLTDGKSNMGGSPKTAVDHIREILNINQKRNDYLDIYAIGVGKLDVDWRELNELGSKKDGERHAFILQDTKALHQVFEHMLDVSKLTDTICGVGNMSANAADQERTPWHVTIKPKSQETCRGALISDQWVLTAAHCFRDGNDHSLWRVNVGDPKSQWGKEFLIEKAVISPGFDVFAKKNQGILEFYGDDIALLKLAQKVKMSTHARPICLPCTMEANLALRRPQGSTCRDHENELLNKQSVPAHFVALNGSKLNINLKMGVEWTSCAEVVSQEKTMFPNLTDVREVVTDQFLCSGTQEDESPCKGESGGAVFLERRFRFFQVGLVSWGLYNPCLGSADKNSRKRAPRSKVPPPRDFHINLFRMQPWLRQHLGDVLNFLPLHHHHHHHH
# T3: human C2 E645A (human, UniProt P06681 21-752)
# T3 sequence: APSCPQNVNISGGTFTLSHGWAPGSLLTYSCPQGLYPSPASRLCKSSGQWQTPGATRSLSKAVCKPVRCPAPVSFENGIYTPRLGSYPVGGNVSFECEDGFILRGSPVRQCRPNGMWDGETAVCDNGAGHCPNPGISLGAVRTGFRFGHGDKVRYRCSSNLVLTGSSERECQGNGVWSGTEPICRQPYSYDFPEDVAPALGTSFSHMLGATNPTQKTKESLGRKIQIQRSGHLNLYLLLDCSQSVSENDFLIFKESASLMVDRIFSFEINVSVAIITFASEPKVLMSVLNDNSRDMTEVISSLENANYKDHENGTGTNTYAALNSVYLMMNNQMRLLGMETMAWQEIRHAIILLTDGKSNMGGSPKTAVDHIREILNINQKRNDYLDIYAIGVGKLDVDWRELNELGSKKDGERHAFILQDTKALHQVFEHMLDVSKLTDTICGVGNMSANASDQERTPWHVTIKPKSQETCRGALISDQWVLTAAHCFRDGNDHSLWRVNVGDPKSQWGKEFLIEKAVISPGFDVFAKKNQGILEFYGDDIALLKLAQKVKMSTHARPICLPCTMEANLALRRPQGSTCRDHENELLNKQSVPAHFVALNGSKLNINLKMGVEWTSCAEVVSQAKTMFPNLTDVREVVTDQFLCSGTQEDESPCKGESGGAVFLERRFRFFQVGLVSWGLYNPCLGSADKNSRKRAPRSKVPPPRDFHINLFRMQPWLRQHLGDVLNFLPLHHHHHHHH
# T4: human C2 V465A (human, UniProt P06681 21-752)
# T4 sequence: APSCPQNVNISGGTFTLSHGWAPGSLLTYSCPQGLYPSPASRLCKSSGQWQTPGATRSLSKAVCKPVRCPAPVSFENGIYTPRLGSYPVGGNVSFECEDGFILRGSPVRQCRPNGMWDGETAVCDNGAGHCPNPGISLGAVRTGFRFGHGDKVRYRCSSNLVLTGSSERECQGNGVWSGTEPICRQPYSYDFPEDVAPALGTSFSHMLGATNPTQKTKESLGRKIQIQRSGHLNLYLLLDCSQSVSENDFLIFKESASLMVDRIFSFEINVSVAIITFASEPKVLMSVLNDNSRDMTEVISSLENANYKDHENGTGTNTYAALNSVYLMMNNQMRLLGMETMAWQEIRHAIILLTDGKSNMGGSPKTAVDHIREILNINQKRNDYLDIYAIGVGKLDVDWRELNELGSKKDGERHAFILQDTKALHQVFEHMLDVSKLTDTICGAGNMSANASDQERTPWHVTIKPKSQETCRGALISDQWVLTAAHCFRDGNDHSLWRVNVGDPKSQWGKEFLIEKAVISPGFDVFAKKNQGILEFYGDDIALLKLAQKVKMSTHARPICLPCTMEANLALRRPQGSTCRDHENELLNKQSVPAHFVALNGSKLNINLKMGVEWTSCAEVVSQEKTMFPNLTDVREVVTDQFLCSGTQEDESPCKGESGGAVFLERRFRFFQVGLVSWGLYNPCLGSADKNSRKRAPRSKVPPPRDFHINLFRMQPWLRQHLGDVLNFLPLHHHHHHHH
# B1: RF16-226 (antibody, human IgG4 S228P, lambda)
# heavy: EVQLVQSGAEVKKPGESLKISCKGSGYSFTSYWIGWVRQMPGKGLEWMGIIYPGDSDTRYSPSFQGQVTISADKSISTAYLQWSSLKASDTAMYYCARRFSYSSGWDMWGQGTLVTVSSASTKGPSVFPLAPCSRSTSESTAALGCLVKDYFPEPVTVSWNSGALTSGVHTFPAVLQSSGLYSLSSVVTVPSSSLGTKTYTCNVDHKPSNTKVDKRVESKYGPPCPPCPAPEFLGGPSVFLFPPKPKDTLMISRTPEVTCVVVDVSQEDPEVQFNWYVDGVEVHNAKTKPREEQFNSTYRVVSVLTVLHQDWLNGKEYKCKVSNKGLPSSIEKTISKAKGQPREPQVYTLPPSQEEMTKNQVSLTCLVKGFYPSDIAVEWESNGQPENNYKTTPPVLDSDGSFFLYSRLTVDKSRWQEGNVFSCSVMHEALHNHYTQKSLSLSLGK
# light: SYELTQPPSVSVSPGQTARITCSGDALTSKYVAWYQQKSGLAPLLVIYEDTRRPSGIPAKFSGSSSGSVATLTISGAHGDDEADYYCYSTDASGHQRVFGGGTKLTVLSQPKAAPSVTLFPPSSEELQANKATLVCLISDFYPGAVTVAWKADGSPVKAGVETTKPSKQSNNKYAASSYLSLTPEQWKSHRSYSCQVTHEGSTVEKTVAPTECS
# notes: pH-dependent anti-C2 antibody from a phage display library; also called WT
# How the values were obtained:
# Assay in all cases: SPR, antibody captured, C2 as analyte;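 note: biacore SPR at 37 °C, anti-C2 mAbs captured via goat anti-human IgG on CM5 chips, double-referenced sensorgrams fit to a 1:1 kinetic or steady-state model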
# human C2 K443A = target: T1, human C2 K443A
# human C2 S473A = target: T2, human C2 S473A
# human C2 E645A = target: T3, human C2 E645A
# human C2 V465A = target: T4, human C2 V465A
binder,measurement,setting,value
B1,binding result,human C2 K443A,no binding
same,Kd,human C2 S473A,14.2 nM
same,Kd,human C2 E645A,14 nM
same,Kd,human C2 V465A,17.1 nM
